Results published in US20180244726A1.

Molecular target: large hepatitis B surface protein (hepatitis B virus)
Test: cell-based or functional assay

Q: With neutralizing monoclonal antibody Ma18/7 as the substance, how does the inhibition of HBV infection of HepG2-hNTCP cells, secreted HBeAg read?
A: The inhibition of HBV infection of HepG2-hNTCP cells, secreted HBeAg was > 90%.
